Experiment [1] has as its target T1, Bet v 1 (isoform not stated for the experiment) (birch, UniProt P15494).
T1 construct: also called immobilized Bet v 1
Nature of the experiment: ELISA; inhibition ELISA: binding of scFv-Fcε to immobilized Bet v 1 in the presence of the identified peptides in soluble form. Particulars: one partner purified.

In the next experiment the target is T2, Recombinant Aln g 1.0101 (Alnus glutinosa, isoform Aln g 1.0101, UniProt P38948).
T2 construct: By its allergen name from Alnus glutinosa (alder); source: bought: Biomay (Vienna, Austria), recombinant
Nature of the experiment: ELISA; allergens coated at 5 μg/mL in PBS; scFv-Fcε from HEK293 supernatant detected with HRP anti-IgE antiserum; duplicates. Particulars: one partner purified. On the technique in general: ELISA stands for enzyme-linked immunosorbent assay.

This is an account of results in paper PMC4215112 (Clinical and Experimental Allergy, 2014).

T2 sequence (P38948 whole entry, looked up, canonical isoform): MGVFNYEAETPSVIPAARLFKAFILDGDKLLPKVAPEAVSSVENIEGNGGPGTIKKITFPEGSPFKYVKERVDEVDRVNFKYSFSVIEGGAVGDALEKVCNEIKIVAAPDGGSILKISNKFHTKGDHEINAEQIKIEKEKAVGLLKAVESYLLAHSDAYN

B1: B14 scFv-Fcε fusion protein (Fc fusion, human)
VH: EVQLVQSGAEVKKPGESLKISCKGSEYSFPNYWIAWVRQMPGKGLEWMGMIYPGDSDTRYSPSFQGQVNISADKSSRTAFLEWSSLKASDSATYFCARLGGQLWNSYYYYYMDVWGKGTTVTVSS
VL: QSVLTQPPSVSVSPGQTARITCSGDKLGNKYAAWYQQKPGQSPVLVIYQDSKRPSGIPERFSGSNSGNTATLTISGTQAMDEADYYCQAWDSSTFYVFGTGTKLTVL
notes: as the VH of m13; as the VL of m13; also called B14 scFv-CHε2-4 fusion protein; source: HEK293, transfected, in filtered supernatant; not shown: Fc (human IgE, second, third and fourth constant domains, CHε2-4), C-terminal, kept
For B1, the binding result in experiment [1] was “binds”.

B2: M0418 scFv-Fcε fusion protein (Fc fusion, human)
VH: QVQLVQSGAEVKKPGESLKISCKGSEYSFPNYWIAWVRQMPGKGLEWMGMIYPGDSDTRYSPSFQGQVNISADKSSRTAFLEWSSLKASDSATYFCARLGGQLWNSYYYYYYMDVWGKGTTVTVSS
VL: SYELTQPPSASGTPGQRVTISCSGSSSNIGGNTVNWYQQVPGTAPRLLIYKNNQRPSGVPDRFSGSKSGTSASLAISGLRSEDEADYYCEAWDGGLRGGVFGGGTKLTVL
notes: as the VH of m14; (Gly4Ser)3 linker as told for the M0418 scFv construct, written out from the printed formula; as the VL of m14; also called the M0418 construct; IgE clone M0418; source: HEK293, transfected, in filtered supernatant; not shown: Fc (human IgE, second, third and fourth constant domains, CHε2-4), C-terminal, kept
In the case of B2, the binding result with Recombinant Aln g 1.0101 is recorded as “no binding”; in experiment [1] it was “binds”.

B3: B13 scFv-Fcε fusion protein (Fc fusion)
VH: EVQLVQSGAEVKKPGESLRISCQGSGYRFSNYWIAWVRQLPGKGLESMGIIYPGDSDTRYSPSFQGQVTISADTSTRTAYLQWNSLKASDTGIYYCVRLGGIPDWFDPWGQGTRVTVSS
VL: SYELTQPPSVSGSPGQSVTISCTGTSSDVGGYNLVSWYQQHPGKAPRLMIYEDTKRPSGVSHRFSGSKSGNTASLTISGLQAEDEADYYCYSYATGRPSRLFGGGTKLTVL
notes: as the VH of m12; as the VL of m12; also called B13 scFv-CHε2-4 fusion protein; source: HEK293, transfected, in filtered supernatant; not shown: Fc (human IgE, second, third and fourth constant domains, CHε2-4), C-terminal, kept
Take B3: the binding result in experiment [1] is listed as “binds”.
